Experiments:
[1] = substrate: CCn1c(=NN=c2sc3cc(S(=O)(=O)O)ccc3n2CC)sc2cc(S(=O)(=O)O)ccc21; test: purified protein, by the assay type; settings: optimum pH, 25° C., 0.4 mM H2O2
Procedure: (§5) VPs production and purification. […] An aliquot of cells was removed and used to inoculate 100 mL of minimal medium in a 1 L flask to an OD600 nm of 0.25-0.30, under the same conditions. The cells completed two growth phases (8-10 hours, reaching OD600 nm˜1-1.5), then the expression medium (450 mL) was inoculated with 50 mL of the pre-culture in a 2 L flask (OD600 nm˜0.1). Cells were incubated for a further ˜60 hours at 30° C. and 225 rpm. Thereafter, cells were centrifuged at 6000 g for 15 min at 4° C., and the supernatant was collected and filtered with a 0.2 μm filter bottle.
(§6) The reaction mixtures contained a specific substrate in 100 mM citrate-phosphate-borate buffer (pH 2, 3, 3.5, 4, 5, 6, 7, 8) and 0.1 mM H2O2. […] The following substrate concentrations and absorption wavelengths were used: ABTS: 2 mM, 418 nm; DMP: 5 mM, 469 nm; RB5: 0.05 mM, 598 nm; VA: 30 mM, 310 nm.

[2] = substrate: COc1ccc(CO)cc1OC; test: purified protein, by the assay type; settings: other: VA, RB5, optimum pH, 25° C., 0.4 mM H2O2
Procedure: as §5, §6

[3] = substrate: COc1cccc(OC)c1O; test: purified protein, by the assay type; settings: optimum pH, 25° C., 0.4 mM H2O2
Procedure: as §5, §6

[4] = substrate: Nc1c(N=Nc2ccc(S(=O)(=O)CCOS(=O)(=O)O)cc2)c(S(=O)(=O)O)cc2cc(S(=O)(=O)O)c(N=Nc3ccc(S(=O)(=O)CCOS(=O)(=O)O)cc3)c(O)c12; test: purified protein, by the assay type; settings: other: VA, RB5, optimum pH, 25° C., 0.4 mM H2O2
Procedure: as §5, §6

[5] = substrate: OO; test: purified protein, by the assay type; settings: other: H2O2 kinetics with 2 mM ABTS, optimum pH for ABTS, 25° C.
Procedure: as §5, §6

[6] = substrate: CCn1c(=NN=c2sc3cc(S(=O)(=O)O)ccc3n2CC)sc2cc(S(=O)(=O)O)ccc21; test: Steady-state kinetics (Michaelis-Menten) of purified VP design 11H with peroxidase substrates; assay type: biochemical, Pleurotus ostreatus; settings: optimum pH, 25° C., 0.1 mM H2O2
Procedure: (§1) VPs production and purification. A colony from S. cerevisiae clone containing the VP gene (5H, 8H, 11H, VPL_R4, VPL_2-1B) was picked from an SC drop-out plate, inoculated in 25 mL minimal medium in a 250 flask, and incubated for 48 hours at 30° C. and 225 rpm. An aliquot of cells was removed and used to inoculate 100 mL of minimal medium in a 1 L flask to an OD600 nm of 0.25-0.30, under the same conditions. The cells completed two growth phases (8-10 hours, reaching OD600 nm˜1-1.5), then the expression medium (450 mL) was inoculated with 50 mL of the pre-culture in a 2 L flask (OD600 nm˜0.1). Cells were incubated for a further ˜60 hours at 30° C. and 225 rpm. Thereafter, cells were centrifuged at 6000 g for 15 min at 4° C., and the supernatant was collected and filtered with a 0.2 μm filter bottle.
(§2) Filtrates were subjected to fractional precipitation with ammonium sulfate in two steps: first cut of 50%, followed by centrifugation and elimination of the precipitates, and the second cut of 70%. Buffer A was used to dissolve the pellet, and the dissolved protein solution was shaken overnight at 4° C. for maximal recovery. The dissolved fraction was then centrifuged, filtrated, concentrated, and subjected to overnight dialysis against buffer A. Filtered fractions of the VP proteins after dialysis were uploaded into a HiTrap™ Q HP Column (GE Healthcare Bio-Sciences AB, Uppsala, Sweden) pre-equilibrated with buffer A, through ÄKTA pure protein purification system (GE Healthcare Bio-Sciences AB). Proteins were eluted in a two-step linear gradient from 0 to 1 M NaCl, at a flow rate of 1 ml/min: the first phase of 0-25% over 15 column volumes (75 min) and second phase of 25-100% over 2 column volumes (10 min). The fractions of the peak with the highest VP activity (and absorption at 407 nm) were pooled, concentrated, and dialyzed against 20 mM piperazine buffer pH=5.5 and 150 mM NaCl (buffer B). Protein fractions were then uploaded onto a Superdex 75 Increase 10/300 GL (GE Healthcare Bio-Sciences AB) through the ÄKTA pure system pre-equilibrated with buffer B. The fractions of the peak with the highest VP activity (and absorption at 407 nm) were pooled and dialyzed against buffer A. Pure protein samples were stored at 4° C. Protein concentration was determined using the BCA assay with bovine serum albumin as a standard. The obtained Reinheitszahl values (Rz: Abs407 nm/Abs280 nm), which indicate for the purity of peroxidases, were 1 for 8H (due to high tryptophan content) and above 2 for 5H, 11H, R4 and 2-1B.
(§3) pH activity profiles. For purified 5H, 8H, 11H, and R4, 20 μL protein samples (diluted in buffer A) were transferred into activity 96 plates (in the case of VA and MnSO4, UV-Star plates; Greiner Bio-One GmbH, Kremsmünster, Austria) and then, 180 μL of the reaction mixture were added to each row in the plate, and absorption at the appropriate wavelength (substrate-dependent) was recorded immediately in a kinetic mode in a plate-reader at 25° C. The reaction mixtures contained a specific substrate in 100 mM citrate-phosphate-borate buffer (pH 2, 3, 3.5, 4, 5, 6, 7, 8) and 0.1 mM H2O2. The activities were recorded in triplicate. The following substrate concentrations and absorption wavelengths were used: ABTS: 2 mM, 418 nm; DMP: 5 mM, 469 nm; RB5: 0.05 mM, 598 nm; VA: 30 mM, 310 nm. For manganese, the reaction mixtures contained 60 mM MnSO4 in 100 mM sodium tartrate buffer (pH 3, 3.5, 4, 4.5, 5) and 0.1 mM H2O2, and the Mn^3+-tartrate complex absorption was read at 238 nm. For each protein and substrate, the activities were normalized to the activity at optimal pH for residual activity calculations. Each activity assay was conducted in triplicate.
(§4) Kinetic parameters. Steady-state kinetics were determined for 5H, 8H, 11H and R4, by measuring the activity (initial rates) in increasing concentrations of the substrate, and the KM and Kcat values were calculated by fitting the results to the Michaelis-Menten model (V0=KcatES/(KM+S)). […]

[7] = substrate: COc1ccc(CO)cc1OC; test: as above; assay type: biochemical, Pleurotus ostreatus; settings: other: VA, RB5, optimum pH, 25° C., 0.1 mM H2O2
Procedure: as §1, §2, §3, §4

[8] = substrate: COc1cccc(OC)c1O; test: as above; assay type: biochemical, Pleurotus ostreatus; settings: optimum pH, 25° C., 0.1 mM H2O2
Procedure: as §1, §2, §3, §4

[9] = substrate: Nc1c(N=Nc2ccc(S(=O)(=O)CCOS(=O)(=O)O)cc2)c(S(=O)(=O)O)cc2cc(S(=O)(=O)O)c(N=Nc3ccc(S(=O)(=O)CCOS(=O)(=O)O)cc3)c(O)c12; test: as above; assay type: biochemical, Pleurotus ostreatus; settings: other: VA, RB5, optimum pH, 25° C., 0.1 mM H2O2
Procedure: as §1, §2, §3, §4

[10] = substrate: OO; test: as above; assay type: biochemical, Pleurotus ostreatus; settings: other: H2O2 kinetics with 2 mM ABTS, optimum pH for ABTS, 25° C.
Procedure: as §1, §2, §3, §4

B1: Pleurotus ostreatus versatile peroxidase VP5, designed variant 5H, SEQ ID NO: 1 (wild type SEQ ID NO: 4; mutations A11S, V15T, A17S, A19E, P26D, D38G, A40Q, … (protein)
chain: VSLPQKRATCSGGQTTSNEACCVLFDLMEDLQKNLFDGGQCGEQAHEALRLTFHDAIGFSPSRGVMGGADGSVITFSDIETNFPANLGIDDIVEAEKSFLQRHNISAGDLVHFAATLAVTNCPGAPRIPFFLGRPPATAPSPPGLVPEPFDSVTDILARMADAGFSPVEVVWLLSAHSVAAADHVDPTIPGTPFDSTPNLFDSQFFIETQLRGTTFPGTGGNPGEVKSPLPGEMRLQSDHLFARDPRTACEWQSMVNDQQKIQDRFRDTLFKMSMLGQNQDDMIDCSDVIPVPPPLTTKPHLPAGKSKTDVEQACATAPFPTLPADPGPPTSVPPVPPA
[1]; other: high efficiency site
  Km: 1.9 ± 0.4 µM
  kcat: 1.5 ± 0.1 s⁻¹
  kcat/Km: 763000 ± 151000 M⁻¹ s⁻¹
[1]; other: low efficiency site
  Km: 765 ± 96 µM
  kcat: 33.2 ± 1.8 s⁻¹
  kcat/Km: 43400 ± 5900 M⁻¹ s⁻¹
[2]
  Km: 158 ± 27 µM
  kcat: 0.52 ± 0.02 s⁻¹
  kcat/Km: 3300 ± 600 M⁻¹ s⁻¹
[3]; other: high efficiency site
  Km: 85.7 ± 16.9 µM
  kcat: 1.2 ± 0.1 s⁻¹
  kcat/Km: 14400 ± 3000 M⁻¹ s⁻¹
[3]; other: low efficiency site
  Km: 27,700 ± 7,100 μM
  kcat: 5.4 ± 0.6 s⁻¹
  kcat/Km: 190 ± 50 M⁻¹ s⁻¹
[4]
  Km: 2.9 ± 1.0 µM
  kcat: 0.18 ± 0.04 s⁻¹
  kcat/Km: 62300 ± 25200 M⁻¹ s⁻¹
[5]
  Km: 197 ± 20 µM
  kcat: 20.3 ± 0.8 s⁻¹
  kcat/Km: 103000 ± 11000 M⁻¹ s⁻¹

B2: Pleurotus ostreatus versatile peroxidase VP11, designed variant 11H, SEQ ID NO: 3 (wild type SEQ ID NO: 6; mutations A11S, V15T, A17S, P26D, I27L, L28R, E29D, … (protein)
chain: VTLPQKRATCSGGQTTSNAACCVLFDLRDDLQKNLFDGGQCGEEVHESLRLTFHDAIGFSPTKGGGGADGSVLIFSDTELNFPANLGIDEIVEAQKPFLQRHNISAGDLVQFAGALGVSNCPGAPRIPFFLGRPPATAPSPDGLVPEPFDSVDDILARMADAGFSPVEVVWLLSSHTIAAADHVDPTIPGTPFDSTPSIFDSQFFIETQLRGTLFPGTGGNPGEVESPLPGEIRLQSDHLLARDPRTACEWQSMVDNMPKIQNRFAATMLKMSLLGQNVRDLIDCSDVIPTPPPLVGTAHLPAGKTQSDVEQACATTPFPTIPADPGPVTSVPPVPPS
[6]; other: high efficiency site
  Km: 6.3 ± 0.7 µM
  kcat: 2.0 ± 0.1 s⁻¹
  kcat/Km: 314000 ± 37000 M⁻¹ s⁻¹
[6]; other: low efficiency site
  Km: 1,100 ± 90 μM
  kcat: 11.2 ± 0.3 s⁻¹
  kcat/Km: 10300 ± 900 M⁻¹ s⁻¹
[7]
  Km: 2,000 ± 100 μM
  kcat: 1.38 ± 0.03 s⁻¹
  kcat/Km: 680 ± 50 M⁻¹ s⁻¹
[8]; other: high efficiency site
  Km: 168 ± 10 µM
  kcat: 1.91 ± 0.04 s⁻¹
  kcat/Km: 11400 ± 700 M⁻¹ s⁻¹
[8]; other: low efficiency site
  Km: 11,400 ± 2,000 μM
  kcat: 6.3 ± 0.4 s⁻¹
  kcat/Km: 550 ± 100 M⁻¹ s⁻¹
[9]
  Km: 2.0 ± 0.2 µM
  kcat: 0.3 ± 0.01 s⁻¹
  kcat/Km: 152000 ± 20000 M⁻¹ s⁻¹
[10]
  Km: 38.9 ± 6.9 µM
  kcat: 7 ± 0.5 s⁻¹
  kcat/Km: 180000 ± 35000 M⁻¹ s⁻¹

From US12331324B2, “Versatile peroxidases and uses thereof” (Yeda Research and Development Co. Ltd., priority 2021, dated 2025)
